Data as given in patent US20080044360A1 (COLLAGEN MEDICAL, published 2008).
Bridge positions count the residues as written; N and C are the ends. Square brackets hold non-standard residues; d marks the D form. Primed or numbered codes have the meaning given here. Side chains are listed from the residue outwards. Ends that are not written are not given here. * marks the point of attachment. Gd^D = GdDOTAGA (gadolinium DOTAGA chelate); Tyr(3-Cl) = N[C@@H](Cc1ccc(O)c(Cl)c1)C(=O)O; Bip = N[C@@H](Cc1ccc(-c2ccccc2)cc1)C(=O)O; Gd^T(3) = GdDTPA attached via thiourea; 1Nal = N[C@@H](Cc1cccc2ccccc12)C(=O)O; hPhe = N[C@@H](CCc1ccccc1)C(=O)O; Cha = N[C@@H](CC1CCCCC1)C(=O)O; K(Gd^T)Gd^T = not defined here; Pen = CC(C)(S)[C@H](N)C(=O)O; Phg = N[C@H](C(=O)O)c1ccccc1; Gd^T″ = GdDTPA-thiourea; Cbz = O=C(OCc1ccccc1)*

Tests used:
[1] = biological target: T1, rat collagen, acid soluble, type I, rat tail (Upstate 08-115) (rat, UniProt P02454 152-1207; P02466 86-1125); assay: dried collagen assay
T1 construct: tissue extract, gelled and dried in wells; also called dried rat collagen
T1 sequence (P02454 152-1207, chain 1 of 2): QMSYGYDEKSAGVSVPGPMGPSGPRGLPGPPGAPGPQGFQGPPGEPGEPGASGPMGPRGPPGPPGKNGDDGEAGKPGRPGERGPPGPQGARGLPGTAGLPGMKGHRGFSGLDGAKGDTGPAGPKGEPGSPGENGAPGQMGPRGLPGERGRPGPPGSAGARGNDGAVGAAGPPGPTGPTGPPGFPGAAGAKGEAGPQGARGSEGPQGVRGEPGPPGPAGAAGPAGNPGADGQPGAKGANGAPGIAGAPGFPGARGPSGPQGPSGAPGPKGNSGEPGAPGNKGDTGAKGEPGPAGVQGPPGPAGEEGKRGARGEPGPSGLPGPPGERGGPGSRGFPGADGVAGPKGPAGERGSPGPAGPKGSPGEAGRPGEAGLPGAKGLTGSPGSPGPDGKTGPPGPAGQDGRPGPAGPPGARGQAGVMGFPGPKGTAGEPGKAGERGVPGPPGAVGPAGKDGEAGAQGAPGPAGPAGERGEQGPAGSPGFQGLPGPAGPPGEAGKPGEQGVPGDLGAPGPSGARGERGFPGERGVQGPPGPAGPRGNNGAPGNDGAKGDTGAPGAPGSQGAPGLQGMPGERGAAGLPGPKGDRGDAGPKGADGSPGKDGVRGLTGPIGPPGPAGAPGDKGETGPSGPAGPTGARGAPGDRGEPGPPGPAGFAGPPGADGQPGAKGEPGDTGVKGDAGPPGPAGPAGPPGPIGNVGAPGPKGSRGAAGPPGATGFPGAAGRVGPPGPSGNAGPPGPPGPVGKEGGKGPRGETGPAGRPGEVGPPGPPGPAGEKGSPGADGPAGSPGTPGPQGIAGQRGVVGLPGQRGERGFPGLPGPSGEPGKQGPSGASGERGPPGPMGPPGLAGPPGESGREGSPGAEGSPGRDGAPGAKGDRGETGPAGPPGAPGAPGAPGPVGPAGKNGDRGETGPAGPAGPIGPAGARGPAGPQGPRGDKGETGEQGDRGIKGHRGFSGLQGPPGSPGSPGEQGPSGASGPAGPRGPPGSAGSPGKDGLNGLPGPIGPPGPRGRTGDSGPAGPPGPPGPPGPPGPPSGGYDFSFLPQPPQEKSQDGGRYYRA
T1 sequence (P02466 86-1125, chain 2 of 2): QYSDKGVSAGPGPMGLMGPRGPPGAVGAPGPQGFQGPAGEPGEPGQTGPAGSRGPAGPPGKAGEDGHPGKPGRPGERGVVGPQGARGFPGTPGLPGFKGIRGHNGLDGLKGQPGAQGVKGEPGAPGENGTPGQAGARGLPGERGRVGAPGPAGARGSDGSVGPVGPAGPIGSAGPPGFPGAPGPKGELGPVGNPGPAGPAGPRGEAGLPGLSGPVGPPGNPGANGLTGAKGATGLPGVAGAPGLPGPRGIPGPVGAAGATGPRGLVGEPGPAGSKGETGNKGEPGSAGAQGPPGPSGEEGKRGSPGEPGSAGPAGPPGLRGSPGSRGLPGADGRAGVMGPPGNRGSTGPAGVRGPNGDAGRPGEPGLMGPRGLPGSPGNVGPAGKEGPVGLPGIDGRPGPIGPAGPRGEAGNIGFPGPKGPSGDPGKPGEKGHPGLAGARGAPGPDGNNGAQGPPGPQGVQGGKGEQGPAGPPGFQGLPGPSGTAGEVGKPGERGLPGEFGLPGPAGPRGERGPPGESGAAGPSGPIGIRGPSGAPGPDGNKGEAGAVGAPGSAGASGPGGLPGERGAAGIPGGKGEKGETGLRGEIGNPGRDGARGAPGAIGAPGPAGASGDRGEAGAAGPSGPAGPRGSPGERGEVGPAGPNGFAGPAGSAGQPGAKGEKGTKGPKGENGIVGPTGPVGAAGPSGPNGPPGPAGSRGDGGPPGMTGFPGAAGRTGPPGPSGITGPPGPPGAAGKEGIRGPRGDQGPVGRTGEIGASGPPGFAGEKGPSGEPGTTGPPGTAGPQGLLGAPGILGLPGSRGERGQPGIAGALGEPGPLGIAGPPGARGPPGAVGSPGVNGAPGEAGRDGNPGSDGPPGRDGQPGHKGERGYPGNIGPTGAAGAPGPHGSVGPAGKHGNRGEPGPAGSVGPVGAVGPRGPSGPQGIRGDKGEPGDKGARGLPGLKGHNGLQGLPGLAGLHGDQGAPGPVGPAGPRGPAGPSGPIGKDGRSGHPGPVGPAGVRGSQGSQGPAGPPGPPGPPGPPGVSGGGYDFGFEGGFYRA

[2] = biological target: T2, human collagen type I, acid soluble, extracted from placenta (Sigma C7774) (human, UniProt P02452 162-1218; P08123 80-1119); assay: dried collagen assay
T2 construct: tissue extract, gelled and dried in wells; also called dried human collagen; h-Collagen
T2 sequence (P02452 162-1218 limits assumed, chain 1 of 2): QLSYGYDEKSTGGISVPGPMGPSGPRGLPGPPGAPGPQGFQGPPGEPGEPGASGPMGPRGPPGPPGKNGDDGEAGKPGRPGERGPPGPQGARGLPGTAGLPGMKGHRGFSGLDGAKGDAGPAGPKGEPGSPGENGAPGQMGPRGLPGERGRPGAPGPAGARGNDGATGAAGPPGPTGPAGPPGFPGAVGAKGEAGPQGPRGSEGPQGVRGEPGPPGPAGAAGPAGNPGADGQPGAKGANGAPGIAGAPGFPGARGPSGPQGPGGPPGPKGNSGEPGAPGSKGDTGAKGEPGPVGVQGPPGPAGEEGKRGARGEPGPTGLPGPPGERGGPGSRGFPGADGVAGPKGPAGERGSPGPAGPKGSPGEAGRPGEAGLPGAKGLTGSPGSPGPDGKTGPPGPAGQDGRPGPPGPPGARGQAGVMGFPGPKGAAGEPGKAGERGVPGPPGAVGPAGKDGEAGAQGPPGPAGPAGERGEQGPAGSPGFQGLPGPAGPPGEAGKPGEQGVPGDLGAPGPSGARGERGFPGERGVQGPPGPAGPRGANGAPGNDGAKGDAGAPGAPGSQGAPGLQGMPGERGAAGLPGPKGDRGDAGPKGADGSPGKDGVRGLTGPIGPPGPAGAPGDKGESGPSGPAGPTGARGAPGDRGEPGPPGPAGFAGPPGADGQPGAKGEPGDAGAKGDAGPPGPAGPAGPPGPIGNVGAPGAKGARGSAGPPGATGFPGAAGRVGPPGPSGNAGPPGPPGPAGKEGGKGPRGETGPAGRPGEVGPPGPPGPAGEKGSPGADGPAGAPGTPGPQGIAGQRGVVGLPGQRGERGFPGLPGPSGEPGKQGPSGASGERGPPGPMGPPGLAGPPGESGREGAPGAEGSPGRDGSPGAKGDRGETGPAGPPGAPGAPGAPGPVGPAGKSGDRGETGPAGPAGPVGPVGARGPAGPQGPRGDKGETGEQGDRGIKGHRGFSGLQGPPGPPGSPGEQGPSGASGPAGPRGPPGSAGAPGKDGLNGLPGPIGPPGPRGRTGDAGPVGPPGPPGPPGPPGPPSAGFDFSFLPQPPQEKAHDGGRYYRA
T2 sequence (P08123 80-1119 limits assumed, chain 2 of 2): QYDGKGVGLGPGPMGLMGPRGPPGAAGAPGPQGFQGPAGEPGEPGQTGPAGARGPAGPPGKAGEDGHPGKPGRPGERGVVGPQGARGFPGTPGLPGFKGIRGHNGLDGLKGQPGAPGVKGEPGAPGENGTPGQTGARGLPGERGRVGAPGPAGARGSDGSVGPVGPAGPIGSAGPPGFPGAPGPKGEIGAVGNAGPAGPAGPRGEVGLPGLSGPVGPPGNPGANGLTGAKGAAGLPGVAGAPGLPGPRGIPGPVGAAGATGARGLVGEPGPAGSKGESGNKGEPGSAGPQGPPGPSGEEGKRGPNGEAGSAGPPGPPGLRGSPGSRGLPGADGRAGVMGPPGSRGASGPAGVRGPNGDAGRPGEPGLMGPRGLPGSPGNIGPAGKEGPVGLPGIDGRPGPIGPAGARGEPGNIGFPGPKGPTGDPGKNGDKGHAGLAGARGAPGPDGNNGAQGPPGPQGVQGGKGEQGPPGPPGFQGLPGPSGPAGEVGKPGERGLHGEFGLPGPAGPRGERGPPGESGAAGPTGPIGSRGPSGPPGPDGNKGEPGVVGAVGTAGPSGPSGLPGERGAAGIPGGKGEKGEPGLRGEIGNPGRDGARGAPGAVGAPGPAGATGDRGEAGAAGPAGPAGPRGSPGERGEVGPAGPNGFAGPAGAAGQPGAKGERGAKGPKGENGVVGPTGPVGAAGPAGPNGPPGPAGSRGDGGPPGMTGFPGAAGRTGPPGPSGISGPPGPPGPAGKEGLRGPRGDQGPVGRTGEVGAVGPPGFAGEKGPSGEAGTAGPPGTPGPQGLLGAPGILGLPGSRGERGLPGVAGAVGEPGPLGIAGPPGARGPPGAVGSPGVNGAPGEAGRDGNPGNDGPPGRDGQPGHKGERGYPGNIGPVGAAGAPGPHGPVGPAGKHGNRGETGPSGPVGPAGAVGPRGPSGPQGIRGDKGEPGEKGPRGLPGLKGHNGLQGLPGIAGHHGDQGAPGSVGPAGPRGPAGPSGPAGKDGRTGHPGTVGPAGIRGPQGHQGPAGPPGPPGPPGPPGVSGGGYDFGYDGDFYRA

Question: {Gd^T(3)}-GQWH[Pen]TTRFPHHYCLYG (disulfide 5-14; not fully specified (C-terminus)) [Compound ID 896] was tested. Which “% bound” value [1] did it give?
Answer: 41%

Question: What about the “% bound” value [2] of the same binder?
Answer: 50%

Question: For {Gd^T″}-AWHCTTLFPHH[dY]CLYG (disulfide 4-13 (inferred); not fully specified (C-terminus)) [Compound ID 909], which “% bound” value [1] is on record?
Answer: 0%

Question: What about the “% bound” value [2] of the same binder?
Answer: 14%

Question: How did the “% bound” value [1] turn out when {Gd^T″}-PPWHCTTLFPHH[dY]CLYG (disulfide 5-14 (inferred); not fully specified (C-terminus)) [Compound ID 912] was run?
Answer: 0%

Question: What about the “% bound” value [2] of the same binder?
Answer: 20%

Question: For {Gd^T″}-GQWHCTTYFPHH[dY]CLYG (disulfide 5-14 (inferred); not fully specified (C-terminus)) [Compound ID 914], which “% bound” value [1] is on record?
Answer: 0%

Question: And the “% bound” value [2]?
Answer: 19%

Question: What does the source list for {Gd^T″}-GQWHCTT[Tyr(3-Cl)]FPHH[dY]CLYG (disulfide 5-14 (inferred); not fully specified (C-terminus)) [Compound ID 916]?
Answer: % bound [1]: 0%; % bound [2]: 23%

Question: Which “% bound” value [1] does the source give for {Gd^T(3)}-GQWHCTT[Cha]FPHH[dY]CLYG (disulfide 5-14; not fully specified (C-terminus)) [Compound ID 918] here?
Answer: 0%

Question: And the “% bound” value [2]?
Answer: 19%

Question: What does the source list for GQWHCTTYFPHHYCLYG (disulfide 5-14 (inferred); not fully specified (N-terminus)) [Compound ID 919]?
Answer: % bound [1]: 93%; % bound [2]: 93%

Question: For Cbz-GQWHCTTRFPHHYCLYGK (disulfide 5-14 (inferred); not fully specified (residue 18)) [Compound ID 925], which “% bound” value [1] is on record?
Answer: 62%

Question: What about the “% bound” value [2] of the same binder?
Answer: 64%

Question: With {Gd^T(3)}-GQWHCTTRFPHHYC[hPhe]YG (disulfide 5-14) [Compound ID 932] as the binder, how does the “% bound” value [1] read?
Answer: 79%

Question: And the “% bound” value [2]?
Answer: 59%

Question: What does the source list for {Gd^T″}-AWHCTTRFPAHYCLYG (disulfide 4-13 (inferred)) [Compound ID 937]?
Answer: % bound [1]: 14%; % bound [2]: 11%

Question: {Gd^T(3)}-GK([Gly-Gd^T(3)])WHCYTYFPHH[1Nal]CLYG (disulfide 5-14; not fully specified (C-terminus)) [Compound ID 992] was tested. Which “% bound” value [1] did it give?
Answer: 64%

Question: And the “% bound” value [2]?
Answer: 75%

Question: What does the source list for {Gd^T″}-GQWHCTTRFPHHYCLYGK(K(Gd^T)Gd^T) (disulfide 5-14 (inferred); reading uncertain) [Compound ID 955]?
Answer: % bound [1]: 36%; % bound [2]: 51%

Question: Which “% bound” value [1] does the source give for {Gd^T″}-K(Gd^T″)K(K(Gd^T)Gd^T)GQWHCTTYFPHHYCLYG (disulfide 7-16 (inferred); reading uncertain) [Compound ID 960] here?
Answer: 34%

Question: And the “% bound” value [2]?
Answer: 30%

Question: For {Gd^D}-GK([Gly-Gd^D])QWHCTTYFPHHYCLYG (disulfide 6-15 (inferred)) [Compound ID 961], which “% bound” value [1] is on record?
Answer: 55%

Question: And the “% bound” value [2]?
Answer: 54%

Question: With {Gd^T″}-GK([Gly-Gd^T″])WHCYTYFPHHYCLYGK(Gd^T″) (disulfide 5-14 (inferred)) [Compound ID 996] as the binder, how does the “% bound” value [1] read?
Answer: 67%

Question: And the “% bound” value [2]?
Answer: 76%

Question: How did the “% bound” value [1] turn out when {Gd^T″}-GK([Gly-Gd^T″])WHCYTYFPHHYCVYGK(Gd^T″) (disulfide 5-14 (inferred); not fully specified (C-terminus)) [Compound ID 974] was run?
Answer: 69%

Question: What about the “% bound” value [2] of the same binder?
Answer: 71%

Question: What does the source list for {Gd^T″}-GK([Gly-Gd^T″])WHCYTYFPHHYCVYYK(Gd^T″) (disulfide 5-14 (inferred); not fully specified (C-terminus)) [Compound ID 975]?
Answer: % bound [1]: 64%; % bound [2]: 70%

Question: With {Gd^T″}-GK([Gly-Gd^T″])WHCTTYFPHHYCLYYK(Gd^T″) (disulfide 5-14 (inferred); not fully specified (C-terminus)) [Compound ID 976] as the binder, how does the “% bound” value [1] read?
Answer: 57%

Question: What about the “% bound” value [2] of the same binder?
Answer: 62%

Question: How did the “% bound” value [1] turn out when {Gd^T″}-GK([Gly-Gd^T″])WHCYTYFPHHYCLYFK(Gd^T″) (disulfide 5-14 (inferred); not fully specified (C-terminus)) [Compound ID 985] was run?
Answer: 68%

Question: What about the “% bound” value [2] of the same binder?
Answer: 56%

Question: Which “% bound” value [1] does the source give for {Gd^T″}-GK([Gly-Gd^T″])WHCYTYFPHHYCLYYK(Gd^T″) (disulfide 5-14 (inferred); not fully specified (C-terminus)) [Compound ID 987] here?
Answer: 68%

Question: And the “% bound” value [2]?
Answer: 62%

Question: Which results are given for {Gd^T″}-GK([Gly-Gd^T″])WHCYTYFPHHYCLY[dY]K(Gd^T″) (disulfide 5-14 (inferred); not fully specified (C-terminus)) [Compound ID 988]?
Answer: % bound [1]: 71%; % bound [2]: 69%

Question: How did the “% bound” value [1] turn out when {Gd^T″}-GK([Gly-Gd^T″])WHCYTYFPHHYCLYVK(Gd^T″) (disulfide 5-14 (inferred); not fully specified (C-terminus)) [Compound ID 989] was run?
Answer: 74%

Question: And the “% bound” value [2]?
Answer: 67%

Question: With {Gd^T″}-GQWHCYTK(Gd^T″)FPHHYCLYGK(Gd^T″) (disulfide 5-14 (inferred); not fully specified (C-terminus)) [Compound ID 993] as the binder, how does the “% bound” value [1] read?
Answer: 70%

Question: What about the “% bound” value [2] of the same binder?
Answer: 75%

Question: Which results are given for {Gd^T″}-GQWHCYTYFPHHYCLYGK(Gd^T″) (disulfide 5-14 (inferred); not fully specified (C-terminus)) [Compound ID 994]?
Answer: % bound [1]: 84%; % bound [2]: 86%

Question: For {Gd^T″}-GK([Gly-Gd^T″])WHCYTK(Gd^T″)FPHHYCLYGK(Gd^T″) (disulfide 5-14 (inferred)) [Compound ID 995], which “% bound” value [1] is on record?
Answer: 42%

Question: What about the “% bound” value [2] of the same binder?
Answer: 51%

Question: For {Gd^T(3)}-GK([Gly-Gd^T(3)])WHCTTYFPHHYCLY[Bip]K(Gd^T(3)) (disulfide 5-14; not fully specified (C-terminus)) [Compound ID 977], which “% bound” value [1] is on record?
Answer: 43%

Question: And the “% bound” value [2]?
Answer: 40%

Question: With {Gd^T(3)}-GK([Gly-Gd^T(3)])WHCYTYFPHHYCLY[Phg]K(Gd^T(3)) (disulfide 5-14; not fully specified (C-terminus)) [Compound ID 986] as the binder, how does the “% bound” value [1] read?
Answer: 67%

Question: What about the “% bound” value [2] of the same binder?
Answer: 60%
